Among the data in patent publication US20260250420A1 (SICHUAN KELUN BIOTECH BIOPHARMACEUTICAL, published 2026) are EC50 values, retold here.

Experiment [1] addresses T1, human PTK7 protein (extracellular sequence of human PTK7 with C-terminal 6×His tag) (human, UniProt Q13308 31-704).
T1 construct: extracellular domain; Expressed transiently in HEK293 cells; also called human PTK7-His; human PTK7-His protein
T1 sequence: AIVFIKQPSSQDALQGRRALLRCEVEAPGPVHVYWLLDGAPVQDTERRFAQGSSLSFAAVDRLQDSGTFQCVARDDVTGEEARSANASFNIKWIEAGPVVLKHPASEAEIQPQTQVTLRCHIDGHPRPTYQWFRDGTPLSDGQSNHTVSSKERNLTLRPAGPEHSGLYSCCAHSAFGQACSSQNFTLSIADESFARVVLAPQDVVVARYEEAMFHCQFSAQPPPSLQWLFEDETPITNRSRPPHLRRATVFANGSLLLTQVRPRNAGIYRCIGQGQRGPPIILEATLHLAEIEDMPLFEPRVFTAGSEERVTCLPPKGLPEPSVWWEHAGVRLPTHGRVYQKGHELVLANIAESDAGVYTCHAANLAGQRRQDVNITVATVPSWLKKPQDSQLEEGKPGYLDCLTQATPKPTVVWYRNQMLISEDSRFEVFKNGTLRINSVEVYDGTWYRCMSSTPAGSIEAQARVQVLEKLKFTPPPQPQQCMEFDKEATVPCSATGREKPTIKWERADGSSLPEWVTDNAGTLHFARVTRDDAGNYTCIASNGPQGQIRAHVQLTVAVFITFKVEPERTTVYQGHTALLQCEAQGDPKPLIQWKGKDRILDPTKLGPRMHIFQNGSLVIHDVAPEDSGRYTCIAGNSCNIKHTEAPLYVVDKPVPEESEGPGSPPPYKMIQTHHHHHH
Kind of experiment: ELISA, coated human PTK7 protein 1 µg/ml. Here is the method:
(§1) Original data was imported into software for nonlinear curve fitting, and EC₅₀ of binding of each antibody to human PTK7 and monkey PTK7 was calculated, respectively. As shown in Table 1 and FIGS. 1A-1B, the screened antibodies could be bound to the human and monkey PTK7 proteins with affinity higher than that of the control antibody Hu24.
A general note: In an ELISA, binding on a coated surface is turned into a signal by an enzyme label.

For experiment [2], the target named is T2, monkey PTK7 protein (extracellular sequence of monkey PTK7 with C-terminal 6×His tag) (monkey).
T2 chain: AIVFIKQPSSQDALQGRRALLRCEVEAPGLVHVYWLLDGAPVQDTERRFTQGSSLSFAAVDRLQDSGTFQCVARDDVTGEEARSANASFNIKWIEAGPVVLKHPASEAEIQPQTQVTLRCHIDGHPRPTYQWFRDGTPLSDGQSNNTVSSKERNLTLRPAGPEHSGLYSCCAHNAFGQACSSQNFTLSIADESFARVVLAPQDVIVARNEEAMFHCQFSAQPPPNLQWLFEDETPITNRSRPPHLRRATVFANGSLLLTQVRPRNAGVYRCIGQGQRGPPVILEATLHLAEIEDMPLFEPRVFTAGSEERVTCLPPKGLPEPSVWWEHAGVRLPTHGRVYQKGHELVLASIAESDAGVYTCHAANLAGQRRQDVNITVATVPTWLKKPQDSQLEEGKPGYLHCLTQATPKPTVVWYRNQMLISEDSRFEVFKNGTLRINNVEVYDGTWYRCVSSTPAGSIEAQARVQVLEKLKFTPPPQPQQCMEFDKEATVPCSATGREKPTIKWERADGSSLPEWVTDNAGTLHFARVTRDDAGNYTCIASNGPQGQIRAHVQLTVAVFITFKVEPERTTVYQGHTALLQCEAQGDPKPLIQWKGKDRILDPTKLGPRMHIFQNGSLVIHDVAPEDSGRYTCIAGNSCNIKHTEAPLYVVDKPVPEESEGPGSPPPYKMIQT
Briefly: ELISA, coated monkey PTK7 protein 1 µg/ml. How it is done: as §1

For experiment [3], the target named is T3, human PTK7 on cells (tumor cells endogenously expressing PTK7); CHO-hPTK7, CHO-S-hPTK7 and 293T-hPTK7 … (human, UniProt Q13308 31-1070).
T3 construct: whole, on cells; The cell line of each value is named under assay; also called H1299; H358
T3 sequence (looked up): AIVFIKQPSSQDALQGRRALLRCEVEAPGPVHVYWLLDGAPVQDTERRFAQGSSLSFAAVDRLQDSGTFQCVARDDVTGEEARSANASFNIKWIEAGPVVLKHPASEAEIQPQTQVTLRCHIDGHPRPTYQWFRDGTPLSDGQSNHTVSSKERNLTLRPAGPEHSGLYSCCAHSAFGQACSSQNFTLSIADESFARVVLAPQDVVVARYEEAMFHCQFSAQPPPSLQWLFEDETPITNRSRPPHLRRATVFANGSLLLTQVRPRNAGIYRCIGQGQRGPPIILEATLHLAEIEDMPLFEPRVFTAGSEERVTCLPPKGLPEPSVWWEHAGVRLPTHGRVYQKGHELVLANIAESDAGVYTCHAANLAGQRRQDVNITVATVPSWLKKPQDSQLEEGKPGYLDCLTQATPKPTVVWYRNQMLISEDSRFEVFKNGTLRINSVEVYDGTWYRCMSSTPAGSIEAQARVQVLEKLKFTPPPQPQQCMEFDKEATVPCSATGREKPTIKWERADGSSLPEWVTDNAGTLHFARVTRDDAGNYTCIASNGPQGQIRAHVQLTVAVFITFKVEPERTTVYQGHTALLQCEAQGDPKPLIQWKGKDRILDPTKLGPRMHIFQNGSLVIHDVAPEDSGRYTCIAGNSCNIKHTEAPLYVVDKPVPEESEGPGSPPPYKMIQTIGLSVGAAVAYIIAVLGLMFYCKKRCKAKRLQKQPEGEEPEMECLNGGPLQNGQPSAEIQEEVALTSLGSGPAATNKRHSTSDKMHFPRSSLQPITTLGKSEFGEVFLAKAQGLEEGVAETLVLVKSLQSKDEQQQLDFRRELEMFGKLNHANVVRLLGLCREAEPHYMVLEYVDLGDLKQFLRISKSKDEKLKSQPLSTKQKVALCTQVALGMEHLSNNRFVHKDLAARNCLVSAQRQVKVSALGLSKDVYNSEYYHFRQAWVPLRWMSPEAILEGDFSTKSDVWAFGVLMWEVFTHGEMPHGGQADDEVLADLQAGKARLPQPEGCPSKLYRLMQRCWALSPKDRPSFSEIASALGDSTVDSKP
Kind of experiment: flow cytometry on H1299 cells endogenously expressing PTK7. In general terms: A flow cytometer gives signals particle by particle.

For experiment [4], the target named is T3, human PTK7 on cells (tumor cells …). Briefly: flow cytometry on H358 cells endogenously expressing PTK7.
Experiment [5] shares this target. Kind of experiment: flow cytometry on H1299 cells. The source says:
A flow cytometer (Beckman, Cytoflex) was used for detecting the affinity of the anti-human PTK7 chimeric and humanized antibodies with human non-small cell lung cancer cells H1299, human lung adenocarcinoma cells H1975, human breast cancer cells T47D, human ovarian cancer cells OVCAR-3 (all purchased from NANJING COBIOER BIOSCIENCES CO., LTD) and CHO-hPTK7 overexpression cells.
The adherent cells were digested by using a pancreatin (Gibco) solution; a proper amount of cells were counted and taken, washed twice by using 1×PBS, and re-suspended in a 1% BSA solution; and then the cells were transferred into a 96-well deep plate at a density of 50 μl/well; a candidate antibody was diluted by using 1% BSA, then 50 μl of diluted antibody was added into the deep plate containing the cells, and incubated for 40 min at 4° C.; the cells were washed twice by using PBS, then 50 μl of diluted secondary antibody was added into each well, uniformly mixed, and incubated for 30 min at 4° C.; and the cells were washed twice by using PBS, then re-suspended in 400 μl of PBS, and subjected to examination by flow cytometer.

The target in experiment [6] is T1, human PTK7 protein (extracellular …). Briefly: ELISA, coated human PTK7-His protein 1 µg/ml. Here is the method:
The original data was imported into software for nonlinear curve fitting, and the EC₅₀ of binding of each antibody to the human PTK7 was calculated, respectively.

Where a chain is given by its changes, count along the chain named.

B1: 57F4 (anti-human PTK7 murine antibody) (antibody, V domains shown)
VH: EVQLVESGGGLVKPGGSRKLSCAASGFTFSDYGMHWVRQAPEKGLEWVAYISSGSSALYYADTVKGRFTISRDNVKNTLFLQMTSLRSEDTAMYYCARRSYYSYFAYWGQGTLVTVSA
VL: QIVLTQSPALMAASPGEKVTITCRVSSSISSSTLHWYQQKSETSPKPWIYGTSNLASGVPVRFSGSGSGTSYSLTISSMEAEDAATYYCQQWSSFPFTFGSGTKLEIK
notes: Murine antibody purified from hybridoma supernatant on Protein A
On to B1, for which the concentration for a half-maximal effect (EC50) – broadly, the concentration needed to bring the measured effect to its halfway point – is 0.0218 µg/mL in experiment [1], 0.0158 µg/mL in experiment [2] and 0.0875 µg/mL in experiment [3].

B2: 4E12 (anti-human PTK7 murine antibody) (antibody, V domains shown)
VH: QVQLQQSGAELMRPGVSVKISCKGSGYTFTDYAMHWVKQNHAKSLEWIGVISTYYGNVSYNQKFKGKATMTVDKSSSTAYMELARLTSEDSAIYYCARGFAYWGQGTLVTVSA
VL: DIVITQDELSNLVTSGESVSISCRSSKSLQKKDGKTYLNWFLQRPGQSPQLLIYLMSTRASGVSDRFSGSGSGTDFTLEISRVKAEDVGVYYCQQLVEYPFTFGSGTKLEIK
notes: as for B1
Turning to B2, the concentration for a half-maximal effect (EC50) in experiment [4] worked out at 0.035 µg/mL.

B3: 64A10-CH (anti-human PTK7 chimeric antibody of 64A10) (antibody, human IgG1, kappa, V domains shown)
VH: QVQLKESGPVLVAPSQSLSITCTVSGFSLTSYGVYWVRQPPGKGPEWLGVIWTSGNTNYNSALMSRLSISKDNSKSQVFLKMNSLQTDDTAMYYCVKHDGGNYVGVMNYWGQGTSVTVSS
VL: DIQMTQSPATLSVTPGDRVSLSCRASQSISDYLHWYQQKSQESPRLLIKYASQSISGIPSRFSGSGSGSDFTLSINSVEPEDVGVYYCQNGHSFPPTFGGGTKLEIKR
notes: The label '-CH' is not defined in words
As to B3, the concentration for a half-maximal effect (EC50) was found to be 0.355 µg/mL in experiment [5] and 0.0258 µg/mL in experiment [6].

B4: 64A10 (anti-human PTK7 murine antibody) (antibody, V domains shown)
VH: B3 VH
VL: DIQMTQSPATLSVTPGDRVSLSCRASQSISDYLHWYQQKSQESPRLLIKYASQSISGIPSRFSGSGSGSDFTLSINSVEPEDVGVYYCQNGHSFPPTFGGGTKLEIK
notes: as for B1
For B4, the EC50 is 0.0132 µg/mL in experiment [1] and 0.00765 µg/mL in experiment [2].

B5: 101A6 (anti-human PTK7 murine antibody) (antibody, V domains shown)
VH: EVKLVESGGGLVQPGGSLSLSCAASGFTFTDYYLSWVRQPPGKALEWLALIRNKANGYTTEYSASVKGRFTISRDSSQSILYLQMDALRAEDSATYYCARDTLAAYWGQGTSVTVSS
VL: DIVMTQSHKFMSTSVGDRVSFTCKASQDVGSAVIWYQQKPGQSPKLLIYWASTRHTGVPDRFTGSGSGTDFTLTISNVQSEDLADYFCQQYSSYPLTFGAGTKLEIK
notes: as for B1
As to B5, the EC50 in experiment [1] was determined as 0.0131 µg/mL; in experiment [2], 0.0187 µg/mL; in experiment [3], 0.245 µg/mL.

B6: 8H3 (anti-human PTK7 murine antibody) (antibody, V domains shown)
VH: B5 VH with L34M, S76N, D86N, T102S, L103F, A104E, A105V, S112L, S117A
VL: B5 VL with M4L, S20N, F21I, S31T, I34A, S76R, Y91F, Y94F, L96F, A100G
notes: as for B1
B6: the EC50 in experiment [1] is 0.0113 µg/mL; in experiment [2], 0.0168 µg/mL; in experiment [3], 0.21 µg/mL.

B7: 101A6-CH (anti-human PTK7 chimeric antibody of 101A6) (antibody, human IgG1, kappa, V domains shown)
VH: B5 VH
VL: DIVMTQSHKFMSTSVGDRVSFTCKASQDVGSAVIWYQQKPGQSPKLLIYWASTRHTGVPDRFTGSGSGTDFTLTISNVQSEDLADYFCQQYSSYPLTFGAGTKLEIKR
notes: as for B3
In the case of B7, the figures for the half-maximal effective concentration (EC50) in experiment [5] and in experiment [6] were 0.158 µg/mL and 0.0316 µg/mL, respectively.

B8: 4B12 (anti-human PTK7 murine antibody) (antibody, V domains shown)
VH: QVTLKESGPGILKPAQTLSLTCSFSGFSLSTSGMGVGWIRQPSGKGLEWLAHIWWDDDKHYNPSLKSRLTISKDASRNQVFLRISSVDTADTATYYCVRSNYGYDWFAYWGQGTLVTVSA
VL: DIKMTQSPSSMYVSLGERVTITCKASQDINTYLGWFQQKPGKSPKTLIYRANRLVDGVPSRFSGSGSGQDYSLTISSLEYEDMEIYYCLQYDEFPLTFGAGTKLEIK
notes: as for B1
B8 yielded an EC50 in experiment [4] of 0.0441 µg/mL.
